# B1: TcAS-A (Trypanosoma cruzi strain CL Brener) (protein)
# chain: MTSGDPAAFIQLQEQIVTVKQVFSSALAKELNLVEVQAPLLACCGDGTQDNLSGTEKAVQVHVKGIPDSKFEVVHSLAKWKRQTLGDHKFPVGQGIYVHMKALRVEEELDTTHSVFVDQWDWELVMPPQERNLTFLKNTVQRLYAAIRQTEEAICSKYNLDRVLPANIQFLHAEHLLKMYPEMNMKERERAIVKKYGAVFLIGIGGNLTSGEPHDLRAPDYDDWSSPVSAADITFPCGDPTMNSLASLPGLNGDILVYNPVLDDVLELSSMGIRVDAETLRRQLTLLSNEDRLGYVWHKRLLAGEFPQTIGGGIGQSRLLMLLLKKKHIGEVQCSVWPKEMRQNYPLL
# notes: full ORF in pET28a(+), 6-His-tagged, expressed in E. coli BL21DE3, Ni purified; predicted dimer (homology model)
# B2: TbAS-A (Trypanosoma brucei brucei TREU927) (protein)
# chain: MGDDGYSSYVLLQEQILTVKRSFSEALEKELNLVEVRAPILFRVGDGTQDNLSGFEKAVQVPVKAIPNASFEVVHSLAKWKRRTLANYKFAPGHGLYTHMTALRVDDVLDNIHSVVVDQWDWEMVMKDDQRNLAFLKEVVCKVYAAIRKTELAVCEKYKQKPILPETIQFVHAEHLLLAYPNLTAKEREREIAREYGAVFLIGIGAVLSSGDRHDARAPDYDDWTSPVEASQVVFPRTSKPIPTMNSLSSLKGLNGDILLYNPTLDDSLEVSSMGIRVNAEALRHQISLTGDDSLLKSEWHQQLLNGEFPQTVGGGIGQSRMVMFMLRKKHIGEVQCSVWPEEIRKKHNLL
# notes: as for B1
# Legend:
# TcAS-A [1] = target: T1, TcAS-A (Trypanosoma cruzi, UniProt Q4CRM4); experiment: ninhydrin asparagine formation assay, Km app method; format: biochemical
# T1 construct: gene Tc00.1047053503625.10; full ORF in pET28a(+), 6-His-tagged, expressed in E. coli BL21DE3, Ni purified; predicted dimer (homology model)
# T1 sequence (Q4CRM4 1-348): B1 chain
# TcAS-A [2] = target: T1, TcAS-A; experiment: ninhydrin asparagine formation assay; format: biochemical
# TbAS-A [3] = target: T2, TbAS-A (Trypanosoma brucei, UniProt Q57WT9); experiment: ninhydrin asparagine formation assay, Km app method; format: biochemical
# T2 construct: gene Tb07.27M11.260; full ORF in pET28a(+), 6-His-tagged, expressed in E. coli BL21DE3, Ni purified; predicted dimer (homology model)
# T2 sequence (Q57WT9 1-351): B2 chain
# TbAS-A [4] = target: T2, TbAS-A; experiment: ninhydrin asparagine formation assay; format: biochemical
# purified protein = substrate: N; experiment: purified protein; conditions: excess aspartate (>20 mM) and ATP (>10 mM), ammonia in solution as nitrogen donor, 8.4 mM Mg2+, 85 mM Tris-HCl, 37 °C
# [5] = substrate: NC(=O)CC[C@H](N)C(=O)O; experiment: ninhydrin asparagine formation assay; format: biochemical, Trypanosoma cruzi; conditions: excess ATP and aspartate, glutamine as nitrogen donor, 8.4 mM Mg2+, 85 mM Tris-HCl, 37 °C
# Excerpt: (§1) ninhydrin asparagine formation assay on TcAS-A
# [6] = substrate: N[C@@H](CC(=O)O)C(=O)O; experiment: ninhydrin asparagine formation assay; format: biochemical, Trypanosoma cruzi; conditions: excess ATP (>10 mM) and ammonia (>50 mM), 8.4 mM Mg2+, 85 mM Tris-HCl, 37 °C
# Excerpt: as §1
# [7] = substrate: Nc1ncnc2c1ncn2[C@@H]1O[C@H](COP(=O)(O)OP(=O)(O)OP(=O)(O)O)[C@@H](O)[C@H]1O; experiment: ninhydrin asparagine formation assay; format: biochemical, Trypanosoma cruzi; conditions: excess aspartate (>20 mM) and ammonia (>50 mM), 8.4 mM Mg2+, 85 mM Tris-HCl, 37 °C
# Excerpt: as §1
# [8] = substrate: NC(=O)CC[C@H](N)C(=O)O; experiment: ninhydrin asparagine formation assay; format: biochemical, Trypanosoma brucei; conditions: excess ATP and aspartate, glutamine as nitrogen donor, 8.4 mM Mg2+, 85 mM Tris-HCl, 37 °C
# Excerpt: (§2) ninhydrin asparagine formation assay on TbAS-A
# [9] = substrate: N[C@@H](CC(=O)O)C(=O)O; experiment: ninhydrin asparagine formation assay; format: biochemical, Trypanosoma brucei; conditions: excess ATP (>10 mM) and ammonia (>50 mM), 8.4 mM Mg2+, 85 mM Tris-HCl, 37 °C
# Excerpt: as §2
# [10] = substrate: Nc1ncnc2c1ncn2[C@@H]1O[C@H](COP(=O)(O)OP(=O)(O)OP(=O)(O)O)[C@@H](O)[C@H]1O; experiment: ninhydrin asparagine formation assay; format: biochemical, Trypanosoma brucei; conditions: excess aspartate (>20 mM) and ammonia (>50 mM), 8.4 mM Mg2+, 85 mM Tris-HCl, 37 °C
# Excerpt: as §2
molecule,measurement,setting,value
N[C@@H](CSS(=O)(=O)O)C(=O)O [L-cysteine-S-sulfate],Ki,TcAS-A [1],129 µM
same,IC50,TcAS-A [2],100 µM
same,Ki,TbAS-A [3],137 µM
same,IC50,TbAS-A [4],126 µM
B1,Km,purified protein,7.75 ± 1.55 mM
same,kcat,purified protein,2.45 s⁻¹
same,kcat/Km,purified protein,316 M⁻¹ s⁻¹
same,Km,[5],15.33 ± 3.66 mM
same,kcat,[5],3.38 ± 0.41 s⁻¹
same,kcat/Km,[5],220 M⁻¹ s⁻¹
same,Km,[6],6.45 ± 2.05 mM
same,kcat,[6],2.41 ± 0.32 s⁻¹
same,kcat/Km,[6],374 M⁻¹ s⁻¹
same,Km,[7],0.72 ± 0.01 mM
same,kcat,[7],3.45 ± 0.02 s⁻¹
same,kcat/Km,[7],4790 M⁻¹ s⁻¹
B2,Km,purified protein,5.55 ± 0.41 mM
same,kcat,purified protein,5.69 s⁻¹
same,kcat/Km,purified protein,1030 M⁻¹ s⁻¹
same,Km,[8],8.20 ± 1.70 mM
same,kcat,[8],5.58 ± 0.48 s⁻¹
same,kcat/Km,[8],680 M⁻¹ s⁻¹
same,Km,[9],5.39 ± 0.31 mM
same,kcat,[9],5.31 ± 0.11 s⁻¹
same,kcat/Km,[9],985 M⁻¹ s⁻¹
same,Km,[10],1.80 ± 0.32 mM
same,kcat,[10],6.22 ± 0.38 s⁻¹
same,kcat/Km,[10],3460 M⁻¹ s⁻¹
